Eight molecules from patent publication US10259881 (dated 2019) can be followed below.

Assay [1] has as its target T1, human CD137 (human, UniProt Q07011). The assay is described as follows: SPR. (In SPR one partner is held on a chip, and binding of the other changes the refractive index at the surface.)
Assay [2] deals with T1, human CD137. The assay is described as follows: SPR. This is another data set of the same source.
In another assay the target is T2, murine CD137 (mouse, UniProt P20334).
T2 chain: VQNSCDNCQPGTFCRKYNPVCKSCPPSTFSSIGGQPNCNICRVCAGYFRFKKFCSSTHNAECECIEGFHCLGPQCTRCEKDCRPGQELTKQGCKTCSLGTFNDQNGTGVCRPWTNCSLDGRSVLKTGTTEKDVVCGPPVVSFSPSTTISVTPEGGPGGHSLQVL

The target of assay [3] is T1, human CD137. The assay is described as follows: SPR. The source holds these as a separate data set.
The target of assay [4] is T1, human CD137. The assay is described as follows: SPR. This is another data set of the same source.

Residue numbers refer to the chain shown, from its start. Where two headings read alike, the source gives them in different places.

T1 sequence (Q07011 24-186): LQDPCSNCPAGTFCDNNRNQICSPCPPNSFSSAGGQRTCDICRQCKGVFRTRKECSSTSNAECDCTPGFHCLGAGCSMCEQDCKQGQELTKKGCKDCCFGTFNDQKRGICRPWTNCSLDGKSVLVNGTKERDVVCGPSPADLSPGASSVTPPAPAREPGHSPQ

B1: MSH1 (antibody, V domains shown)
VH: QMQLVQSGAEVKKPGASVKVSCKASGYNFGGYYMHWVRQAPGQGLEWMGWVNPHSGGTNYAQKFQGRVTITRDTSASTAYMELSSLRSEDTAVYYCAREGEAWGLDLDLWGQGTLVTVSS
VL: SYELTQPPSVSVAPGKTARITCGGNNIGSKSVHWYQQKPGQAPVLVIYYDSDRPSGIPERFSGSNSGNTATLTISRVEAGDEADYYCQVWDSSSVVFGGGTQLTVL
On to B1, for which the Kd with human CD137 [1] worked out at 87.8 nM.

B2: MSB7 (antibody, V domains shown)
VH: B1 VH with N28S, G30S, H54M, E101M, W103M, G104R, D106E, L109K
VL: B1 VL
With B2, the Kd in the assay with human CD137 [1] came out at 16.6 nM.

B3: MSA11 (antibody, V domains shown)
VH: B1 VH with N28S, G30T, H54K, E101W, W103R, G104R, L105I, L109E
VL: B1 VL
In the assay with human CD137 [2], B3 yielded a Kd of 46.9 nM.

B4: MSC8 (antibody, V domains shown)
VH: B1 VH with H54K, W103V, L109Y
VL: B1 VL
As to B4, in the assay with murine CD137, the binding result is reported as “no binding”. The Kd in the assay with human CD137 [3] came out at 218 nM.

B5: MD4 (antibody, V domains shown)
VH: B1 VH with F29W, G30T, V51I, H54M, S55A, E101W, W103R, L105V, D106E, L109M
VL: B1 VL
As to B5, in the assay with human CD137 [1], binding was characterised by a dissociation constant (Kd) of 8.9 nM.

B6: MB12 (antibody, V domains shown)
VH: B1 VH with N28S, F29L, G30E, V51I, H54N, W103V, L109Y
VL: B1 VL
B6 came in with a Kd with human CD137 [4] of 155 nM. For the same molecule, the binding result in the assay with murine CD137 is given as “no binding”.

B7: MC8 (antibody, V domains shown)
VH: QMQLVQSGAEVKKPGASVKVSCKASGYMPDGYYMHWVRQAPGQGLEWMGWINPRTGGTNYAQKFQGRVTITRDTSASTAYMELSSLRSEDTAVYYCAREGAAFRLELDAWGQGTLVTVSS
VL: B1 VL
Molecule B7 showed a Kd in the assay with human CD137 [2] of 30.2 nM.

B8: MB3 (antibody, V domains shown)
VH: B1 VH with N28Q, F29M, G30R, V51I, H54N, W103V, L109Y
VL: B1 VL
Turning to B8, in the assay with murine CD137, the binding result is reported as “no binding”. The molecule also showed a Kd with human CD137 [3] of 229 nM.

What is called Kd is the constant that tells how readily two partners part at equilibrium.
